Data from patent publication US20240288446.

Biological target: T1, Human Glu-plasminogen
T1 chain: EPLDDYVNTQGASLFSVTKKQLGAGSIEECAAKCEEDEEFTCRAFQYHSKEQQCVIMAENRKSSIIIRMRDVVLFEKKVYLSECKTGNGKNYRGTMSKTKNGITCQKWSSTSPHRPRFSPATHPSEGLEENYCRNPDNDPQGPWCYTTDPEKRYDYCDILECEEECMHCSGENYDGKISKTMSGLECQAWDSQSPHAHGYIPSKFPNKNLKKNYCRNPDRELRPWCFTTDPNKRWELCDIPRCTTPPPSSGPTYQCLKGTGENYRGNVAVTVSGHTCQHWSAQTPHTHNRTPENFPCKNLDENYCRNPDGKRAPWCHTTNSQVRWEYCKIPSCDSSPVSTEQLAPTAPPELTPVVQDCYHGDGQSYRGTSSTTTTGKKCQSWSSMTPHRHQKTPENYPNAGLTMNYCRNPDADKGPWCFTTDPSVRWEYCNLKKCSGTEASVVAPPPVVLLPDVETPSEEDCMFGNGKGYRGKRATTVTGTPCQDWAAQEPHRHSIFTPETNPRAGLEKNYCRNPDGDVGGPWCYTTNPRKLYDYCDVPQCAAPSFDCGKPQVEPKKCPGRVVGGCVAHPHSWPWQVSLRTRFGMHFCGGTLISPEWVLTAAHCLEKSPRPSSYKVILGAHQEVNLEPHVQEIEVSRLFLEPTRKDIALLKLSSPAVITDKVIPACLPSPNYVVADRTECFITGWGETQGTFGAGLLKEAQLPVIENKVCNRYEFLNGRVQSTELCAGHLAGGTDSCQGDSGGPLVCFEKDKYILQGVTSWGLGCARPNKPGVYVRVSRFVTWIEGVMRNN

B1: Human tissue plasminogen activator (protein)
chain: SYQVICRDEKTQMIYQQHQSWLRPVLRSNRVEYCWCNSGRAQCHSVPVKSCSEPRCFNGGTCQQALYFSDFVCQCPEGFAGKCCEIDTRATCYEDQGISYRGTWSTAESGAECTNWNSSALAQKPYSGRRPDAIRLGLGNHNYCRNPDRDSKPWCYVFKAGKYSSEFCSTPACSEGNSDCYFGNGSAYRGTHSLTESGASCLPWNSMILIGKVYTAQNPSAQALGLGKHNYCRNPDGDAKPWCHVLKNRRLTWEYCDVPSCSTCGLRQYSQPQFRIKGGLFADIASHPWQAAIFAKHRRSPGERFLCGGILISSCWILSAAHCFQERFPPHHLTVILGRTYRVVPGEEEQKFEVEKYIVHKEFDDDTYDNDIALLQLKSDSSRCAQESSVVRTVCLPPADLQLPDWTECELSGYGKHEALSPFYSERLKEAHVRLYPSSRCTSQHLLNRTVTDNMLCAGDTRSGGPQANLHDACQGDSGGPLVCLNDGRMTLVGIISWGLGCGQKDVPGVYTKVTNYLDWIRDNMRP
- conversion of plasminogen into plasmin (plasmin-selective chromogenic substrate): The time- and concentration-dependent conversion of plasminogen into plasmin at the fibrin-NETs lattice was reduced as compared to fibrin alone
